From paper PMC10117100

Target: Gluc1-E2F4 (human), Q16254
Assay: split reporter (BiFC, NanoBiT); Gaussia princeps protein complementation assay (GPCA): Gluc1 and Gluc2 N-terminal fusions co-transfected in HEK293T, luminescence of lysates after 48 h as normalized luminescence ratio (NLR); pairs count as interacting if NLR is above 5
Conditions: remark: other sources report otherwise

Sequence of Gluc1-E2F4 (human), Q16254 (Q16254 whole entry, the tested form may be a part): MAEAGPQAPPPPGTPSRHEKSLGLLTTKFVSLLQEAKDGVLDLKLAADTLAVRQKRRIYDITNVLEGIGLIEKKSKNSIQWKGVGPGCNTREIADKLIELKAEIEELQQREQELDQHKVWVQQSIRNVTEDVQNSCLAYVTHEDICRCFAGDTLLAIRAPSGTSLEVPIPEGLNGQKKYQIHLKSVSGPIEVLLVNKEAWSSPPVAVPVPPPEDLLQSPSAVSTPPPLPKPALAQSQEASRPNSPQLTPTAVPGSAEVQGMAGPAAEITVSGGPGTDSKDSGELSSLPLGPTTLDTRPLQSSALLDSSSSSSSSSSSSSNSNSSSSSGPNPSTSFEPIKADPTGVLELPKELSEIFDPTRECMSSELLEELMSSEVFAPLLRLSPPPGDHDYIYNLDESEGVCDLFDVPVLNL

- normalized luminescence ratio (NLR): > 40
B1: Gluc2-p130, Q08999 1-1139 (natural protein)
chain: MPSGGDQSPPPPPPPPAAAASDEEEEDDGEAEDAAPPAESPTPQIQQRFDELCSRLNMDEAARAEAWDSYRSMSESYTLEGNDLHWLACALYVACRKSVPTVSKGTVEGNYVSLTRILKCSEQSLIEFFNKMKKWEDMANLPPHFRERTERLERNFTVSAVIFKKYEPIFQDIFKYPQEEQPRQQRGRKQRRQPCTVSEIFHFCWVLFIYAKGNFPMISDDLVNSYHLLLCALDLVYGNALQCSNRKELVNPNFKGLSEDFHAKDSKPSSDPPCIIEKLCSLHDGLVLEAKGIKEHFWKPYIRKLYEKKLLKGKEENLTGFLEPGNFGESFKAINKAYEEYVLSVGNLDERIFLGEDAEEEIGTLSRCLNAGSGTETAERVQMKNILQQHFDKSKALRISTPLTGVRYIKENSPCVTPVSTATHSLSRLHTMLTGLRNAPSEKLEQILRTCSRDPTQAIANRLKEMFEIYSQHFQPDEDFSNCAKEIASKHFRFAEMLYYKVLESVIEQEQKRLGDMDLSGILEQDAFHRSLLACCLEVVTFSYKPPGNFPFITEIFDVPLYHFYKVIEVFIRAEDGLCREVVKHLNQIEEQILDHLAWKPESPLWEKIRDNENRVPTCEEVMPPQNLERADEICIAGSPLTPRRVTEVRADTGGLGRSITSPTTLYDRYSSPPASTTRRRLFVENDSPSDGGTPGRMPPQPLVNAVPVQNVSGETVSVTPVPGQTLVTMATATVTANNGQTVTIPVQGIANENGGITFFPVQVNVGGQAQAVTGSIQPLSAQALAGSLSSQQVTGTTLQVPGQVAIQQISPGGQQQKQGQSVTSSSNRPRKTSSLSLFFRKVYHLAAVRLRDLCAKLDISDELRKKIWTCFEFSIIQCPELMMDRHLDQLLMCAIYVMAKVTKEDKSFQNIMRCYRTQPQARSQVYRSVLIKGKRKRRNSGSSDSRSHQNSPTELNKDRTSRDSSPVMRSSSTLPVPQPSSAPPTPTRLTGANSDMEEEERGDLIQFYNNIYIKQIKTFAMKYSQANMDAPPLSPYPFVRTGSPRRIQLSQNHPVYISPHKNETMLSPREKIFYYFSNSPSKRLREINSMIRTGETPTKKRGILLEDGSESPAKRICPENHSALLRRLQDVANDRGSH
